Experimental data published in patent US5885833.

Target: E2F1-DP1 heterodimer (E2F1 aa 87-1398 as printed) (Homo sapiens?) (UniProt Q01094+Q14186)
Assay: EMSA
[1] = complex not specified individually

Chain of E2F1-DP1 heterodimer (E2F1 aa 87-1398 as printed) (Homo sapiens?) (Q01094 whole entry, chain 1 of 2, the tested form may be a part): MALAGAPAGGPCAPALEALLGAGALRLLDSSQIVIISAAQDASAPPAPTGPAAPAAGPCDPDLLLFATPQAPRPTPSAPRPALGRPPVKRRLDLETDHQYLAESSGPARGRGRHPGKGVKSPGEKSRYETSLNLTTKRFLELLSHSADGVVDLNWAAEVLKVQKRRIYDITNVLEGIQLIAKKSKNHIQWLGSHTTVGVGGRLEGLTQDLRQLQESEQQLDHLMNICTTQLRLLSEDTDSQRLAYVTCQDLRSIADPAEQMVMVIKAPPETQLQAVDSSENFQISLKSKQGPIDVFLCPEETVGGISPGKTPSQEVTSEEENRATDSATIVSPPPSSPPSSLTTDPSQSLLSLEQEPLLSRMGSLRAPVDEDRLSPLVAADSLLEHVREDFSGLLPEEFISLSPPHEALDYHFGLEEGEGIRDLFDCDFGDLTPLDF
Chain of E2F1-DP1 heterodimer (E2F1 aa 87-1398 as printed) (Homo sapiens?) (Q14186 whole entry, chain 2 of 2, the tested form may be a part): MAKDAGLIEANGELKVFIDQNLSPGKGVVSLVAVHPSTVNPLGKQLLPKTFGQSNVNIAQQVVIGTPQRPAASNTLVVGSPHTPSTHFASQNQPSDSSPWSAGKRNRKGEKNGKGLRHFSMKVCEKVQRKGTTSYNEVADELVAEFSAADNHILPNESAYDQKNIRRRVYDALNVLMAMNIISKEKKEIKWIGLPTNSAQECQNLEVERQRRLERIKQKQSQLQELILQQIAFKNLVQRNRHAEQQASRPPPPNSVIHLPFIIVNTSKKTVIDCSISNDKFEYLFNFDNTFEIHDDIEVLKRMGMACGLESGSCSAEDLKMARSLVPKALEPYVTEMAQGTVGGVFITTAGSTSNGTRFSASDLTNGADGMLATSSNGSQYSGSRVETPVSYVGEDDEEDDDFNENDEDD

Sequence | binding signal (% probe bound) [1] | binding signal (% probe bound) (22 C, 50 mM NaCl, pH 8.0)
GATCCTCTCACCTGCTGCTAG (double strand) [control probe] | < 0.002 | 
GGCGCCGACGCACTTGGCTGGAGATAGGAAAGTGGTTCTGTG (double strand) [mutated B-myb probe] | < 0.01 | 
GATCGACTAGTTTCGCGCCCTTTCTACTAG (double strand) [E2a adenovirus promoter probe] |  | 1
